Experimental data published in the supplement of paper PMC5998384.

Key:
HeLa Kyoto [1] = assay: solubility in G1/S (NP-40 vs SDS abundance) (log2 ratio); higher = more soluble; settings: cell cycle stage: G1/S
HeLa Kyoto [2] = assay: melting temperature (median over replicates), in situ; higher = more thermally stable
HeLa Kyoto [3] = assay: solubility change mitosis vs G1/S (difference of NP-40 vs SDS log2 ratios) (log2 ratio difference); higher = more soluble in mitosis
HeLa Kyoto [4] = assay: thermal stability score vs G1/S (z-score of summed log2 fold changes over temperatures); higher = more thermally stable than in G1/S
[5] = cell cycle stage: early G1 (4.5 h after nocodazole release)
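Throughout, for melting temperature (median over replicates), in situ: HeLa Kyoto cells synchronized by double thymidine or nocodazole block, proteins quantified by TMT10plex mass spectrometry, three independent biological replicates.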
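Throughout, for solubility change mitosis vs G1/S (difference of NP-40 vs SDS log2 ratios): synchronized HeLa Kyoto cells (double thymidine block for G1/S, nocodazole release for mitosis), protein amounts in NP-40 versus SDS lysates quantified by mass spectrometry, three biological replicates.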
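Throughout, for solubility in G1/S (NP-40 vs SDS abundance): HeLa Kyoto cells arrested at G1/S by double thymidine block, proteins quantified by TMT10plex mass spectrometry in mild NP-40 versus SDS extracts, three biological replicates.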
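Throughout, for thermal stability score vs G1/S (z-score of summed log2 fold changes over temperatures): synchronized HeLa Kyoto cells, proteins quantified by TMT10plex mass spectrometry, three biological replicates, mitosis taken 0.5 h after nocodazole release, G1/S directly after double thymidine block.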

RHOB, sequence (chain, as listed by the source): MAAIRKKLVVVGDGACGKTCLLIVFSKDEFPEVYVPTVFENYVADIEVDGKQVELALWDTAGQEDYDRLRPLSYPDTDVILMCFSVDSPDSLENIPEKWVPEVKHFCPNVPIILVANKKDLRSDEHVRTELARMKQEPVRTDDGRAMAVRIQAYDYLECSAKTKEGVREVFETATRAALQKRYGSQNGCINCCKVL

Substance	solubility in G1/S (log2) (HeLa Kyoto [1])	melting temperature (HeLa Kyoto [2]; cell cycle stage: G1/S) [°C]	melting temperature (HeLa Kyoto [2]; cell cycle stage: mitosis) [°C]	solubility change mitosis (log2) (HeLa Kyoto [3])	thermal stability score (HeLa Kyoto [4]; [5])	thermal stability score (HeLa Kyoto [4]; cell cycle stage: mitosis)
RHOB	0.157	57.2	58.2	-0.114	-0.544	-0.587
LAMB1	0.0818	53.6	54.2	-0.0866	3.04	4.45
MAMGLFRVCLVVVTAIINHPLLFPRENATVPENEEEIIRKMQAHQEKLQLEQLRLEEEVARLAAEKEALEQVAEEGRQQNETRVAWDLWSTLCMILFLMIEVWRQDHQEGPSPECLGGEEDELPGLGGAPLQGLTLPNKATLGHFYERCIRGATADAARTREFLEGFVDDLLEALRSLCNRDTDMEVEDFIGVDSMYENWQVDRPLLCHLFVPFTPPEPYRFHPELWCSGRSVPLDRQGYGQIKVVRADGDTLSCICGKTKLGEDMLCLLHGRNSMAPPCGDMENLLCATDSLYLDTMQVMKWFQTALTRAWKGIAHKYEFDLAFGQLDSPGSLKIKFRSGKFMPFNLIPVIQCDDSDLYFVSHLPREPSEGTPASSTDWLLSFAVYERHFLRTTLKALPEGACHLSCLQIASFLLSKQSRLTGPSGLSSYHLKTALLHLLLLRQAADWKAGQLDARLHELLCFLEKSLLQKKLHHFFIGNRKVPEAMGLPEAVLRAEPLNLFRPFVLQRSLYRKTLDSFYEMLKNAPALISEYSLHVPSDQPTPKS [ITPRIP]	0.169	52	–	-0.1	-0.0632	-0.00908
CDC42BPB	-0.234	51	50.6	-0.105	0.874	0.582
MGRLVAVGLLGIALALLGERLLALRNRLKASREVESVDLPHCHLIKGIEAGSEDIDILPNGLAFFSVGLKFPGLHSFAPDKPGGILMMDLKEEKPRARELRISRGFDLASFNPHGISTFIDNDDTVYLFVVNHPEFKNTVEIFKFEEAENSLLHLKTVKHELLPSVNDITAVGPAHFYATNDHYFSDPFLKYLETYLNLHWANVVYYSPNEVKVVAEGFDSANGINISPDDKYIYVADILAHEIHVLEKHTNMNLTQLKVLELDTLVDNLSIDPSSGDIWVGCHPNGQKLFVYDPNNPPSSEVLRIQNILSEKPTVTTVYANNGSVLQGSSVASVYDGKLLIGTLYHRALYCEL [PON2]	0.315	53.6	53.6	-0.101	4.83	4.5
MEIPPTNYPASRAALVAQNYINYQQGTPHRVFEVQKVKQASMEDIPGRGHKYHLKFAVEEIIQKQVKVNCTAEVLYPSTGQETAPEVNFTFEGETGKNPDEEDNTFYQRLKSMKEPLEAQNIPDNFGNVSPEMTLVLHLAWVACGYIIWQNSTEDTWYKMVKIQTVKQVQRNDDFIELDYTILLHNIASQEIIPWQMQVLWHPQYGTKVKHNSRLPKEVQLE [LXN]	0.224	51.9	52.3	-0.098	0.745	0.0486
MLRTSVLRLLGRTGASRLSLLEDFGPRYYSSGSLSAGDDACDVRAYFTTPIFYVNAAPHIGHLYSALLADALCRHRRLRGPSTAATRFSTGTDEHGLKIQQAAATAGLAPTELCDRVSEQFQQLFQEAGISCTDFIRTTEARHRVAVQHFWGVLKSRGLLYKGVYEGWYCASDECFLPEAKVTQQPGPSGDSFPVSLESGHPVSWTKEENYIFRLSQFRKPLQRWLRGNPQAITPEPFHHVVLQWLDEELPDLSVSRRSSHLHWGIPVPGDDSQTIYVWLDALVNYLTVIGYPNAEFKSWWPATSHIIGKDILKFHAIYWPAFLLGAGMSPPQRICVHSHWTVCGQKMSKSLGNVVDPRTCLNRYTVDGFRYFLLRQGVPNWDCDYYDEKVVKLLNSELADALGGLLNRCTAKRINPSETYPAFCTTCFPSEPGLVGPSVRAQAEDYALVSAVATLPKQVADHYDNFRIYKALEAVSSCVRQTNGFVQRHAPWKLNWESPVDAPWLGTVLHVALECLRVFGTLLQPVTPSLADKLLSRLGVSASERSLGELYFLPRFYGHPCPFEGRRLGPETGLLFPRLDQSRTWLVKAHRT [MARS2]	0.0996	55.2	55.5	-0.083	-3.14	-3.9
